Measurements taken from patent publication US20140303084A1 (Biogen, published 2014).
Bridge positions count the residues as written; N and C are the ends. Square brackets hold non-standard residues; d marks the D form. Ends that are not written are not given here. (PEG)4 = polyethylene glycol, 4 units; Dap = NC[C@H](N)C(=O)O

B1: KLTCLASYC-Nal-LF (peptide)
peptide: KLTCLASYC[Nal]LF
modifications: not fully specified; printed as KLTCLASYC-Nal-LF; cysteine pairing not given here
B2: KLTCLA-Dpr-YCWLF (peptide)
peptide: KLTCLA[Dap]YCWLF
modifications: not fully specified; printed as KLTCLA-Dpr-YCWLF; cysteine pairing not given here
B3: Dpr-LTCLASYCWLF (peptide)
peptide: [Dap]LTCLASYCWLF
modifications: not fully specified; printed as Dpr-LTCLASYCWLF; cysteine pairing not given here

target: human Factor IXa (human, UniProt P00740 47-191; P00740 227-461); assay: cell-based or functional assay

Binder	EC50 [µM], FXa generation assay [µM]
QLPCLASYCGLF	> 20
QLTCLASECGLS	> 20
B1	< 0.5
EQTCLASYCWLF	> 20
QLTCLASYCWLF	> 20
KLTCLASYCQLV	< 0.5
GCSSDKLTARTRHCSMFQPLSV	> 20
Ac-KLTCLASYCWLF (not fully specified; cysteine pairing not given here) [Ac-KLTCLASYCWLF]	> 1
QLTCLASYCGGV	> 20
KKTCLASYCWLF	> 50
KLTCLASKCWLF	> 100
WVPQWKVTCLASCSRLFHGFDA	> 5
KLTCLASYCWLF (Lys(Me)2 1) [Lys(Me)2-LTCLASYCWLF]	> 1
KLTCKASYCWLF	> 1
KLTCLKSYCWLF	> 1
DSRSAKRKCLASYCWLFGIGQA	> 20
KLTCLASYCWXF (not fully specified; Nle 11) [KLTCLASYCW-Nle-F]	< 0.5
KLSCQAGQCWVF	> 1
KLTCLXSYCWLF (not fully specified; Aib 6) [KLTCL-Aib-SYCWLF]	> 20
VGEHRKISCVASNCQLLRSGLA	> 20
B2	> 20
KLTCLGSYCWLF	> 1

Binder	EC50 [µM], FXa generation assay [µM]
KLTCLASYCWYF	< 0.5
RCAQSRLPWLVSYCWLFSPYGM	> 5
MEGTRQPTCLASYCSPFQYVAP	> 20
KLTCLASYCWLK	> 100
KEGFAQLPCLVCQGGLFSPRAI	> 20
XLTCLASYCWLF (not fully specified; Orn 1) [Orn-LTCLASYCWLF]	< 0.5
NLTGRASYGWLP	> 20
RPGGGKVTCQASYCWPFLARAG	> 20
GSCRDQLTCLSSDRWQFFRRVS	> 20
KLTCLSSYCWLF	> 1
KLTCQASYCWLF	> 1
KLTCLASYCWLF-{(PEG)4-NH2} (cysteine pairing not given here) [KLTCLASYCWLF-(PEG)4-CONH2]	> 1
LRTQPKVTGLASCSGLVNCSRD	> 20
KKTCVASFCQMI	> 5
NPTCQASYCQLF	> 20
KLTCLASYCWLF-OH (disulfide 4-9 (inferred)) [KLTCLASYCWLF-COOH]	> 1
VAHYGKVTCLASYCQPLPSVGA	> 20
VQRSTQLTCLYGGCRLFGWNYH	> 20
KLTCLXSYCWLF (not fully specified; Dpr 6) [KLTCL-Dpr-SYCWLF]	> 1
{(PEG)27}-KLTCLASYCWLF (cysteine pairing not given here) [(PEG)27-KLTCLASYCWLF]	> 1
B3	> 1
KLTCLATYCWLF	> 1

Binder	EC50 [µM], FXa generation assay [µM]
TLDSKNLQCLGSSCWLFSSGLS	> 20
{(PEG)27-(PEG)27}-KLTCLASYCWLF (cysteine pairing not given here) [(PEG)27(PEG)27-KLTCLASYCWLF]	> 1
KLTCLASQCWLF	< 0.5
ERYRLDMTCMASQCWQFPPAAG	< 0.5
KLTCRASYCQLF	> 1
GASSDKLTCRTRHCSMFQPLSV	> 20
KGRCLTSHCWLF	> 20
SCVKHELKCLSSDSRLFSAVQR	> 20
AQTRVARCCQLF	> 20
TLTCRASYCQLF	> 1
QQTCQASQCQLF	> 20
KLKCLSSECQLL	> 20
KLTCLAXYCWLF (not fully specified; HSe 7) [KLTCLA-HSe-YCWLF]	> 1
SLADTQLTWLARQYWLSVSEGS	> 20
MLTCIASYCQLG	> 20
LQELTKLTCLARSGWLVCNPGY	> 20
SISGQQLTCRASHCWLNLPWHS	> 20
KLTCLXSYCWLF (not fully specified; Abu 6) [KLTCL-Abu-SYCWLF]	> 1
RRCPGKLQALASYCWLFWTGIA	> 1
KLTCLASYCWLF (Lys(Me3CI) 1) [Lys(Me3CI)-LTCLASYCWLF]	> 1
